Laboratory results taken from PMC9536601 (2022).

T1: Ad1 hexon, on wild-type human adenovirus type 1 virions (human adenovirus type 1)
T1 chain: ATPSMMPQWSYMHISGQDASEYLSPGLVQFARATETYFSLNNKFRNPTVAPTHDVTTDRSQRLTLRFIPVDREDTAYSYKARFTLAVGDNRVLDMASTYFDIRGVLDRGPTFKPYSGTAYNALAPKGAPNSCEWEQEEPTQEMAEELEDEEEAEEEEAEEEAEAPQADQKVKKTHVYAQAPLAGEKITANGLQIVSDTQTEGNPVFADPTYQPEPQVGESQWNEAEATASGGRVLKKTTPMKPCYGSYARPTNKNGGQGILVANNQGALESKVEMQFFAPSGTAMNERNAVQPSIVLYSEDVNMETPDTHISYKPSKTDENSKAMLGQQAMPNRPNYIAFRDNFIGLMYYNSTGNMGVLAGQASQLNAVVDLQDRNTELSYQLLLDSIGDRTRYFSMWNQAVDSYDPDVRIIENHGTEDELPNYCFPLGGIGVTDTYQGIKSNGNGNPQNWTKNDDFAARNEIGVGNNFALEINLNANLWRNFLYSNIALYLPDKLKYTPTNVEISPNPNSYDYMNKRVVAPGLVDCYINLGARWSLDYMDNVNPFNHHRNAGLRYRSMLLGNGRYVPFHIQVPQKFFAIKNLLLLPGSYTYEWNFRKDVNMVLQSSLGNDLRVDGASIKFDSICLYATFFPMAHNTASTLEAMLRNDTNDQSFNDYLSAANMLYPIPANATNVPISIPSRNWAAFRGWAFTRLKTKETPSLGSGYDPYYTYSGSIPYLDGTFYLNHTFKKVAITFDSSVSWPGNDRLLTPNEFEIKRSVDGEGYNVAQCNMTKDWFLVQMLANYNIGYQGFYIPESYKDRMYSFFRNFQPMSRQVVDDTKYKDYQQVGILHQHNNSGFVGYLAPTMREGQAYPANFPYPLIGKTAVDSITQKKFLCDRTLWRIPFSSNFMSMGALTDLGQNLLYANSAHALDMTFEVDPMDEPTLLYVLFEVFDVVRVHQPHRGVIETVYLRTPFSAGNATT

T2: Ad5 hexon, on wild-type human adenovirus type 5 virions (human adenovirus type 5, UniProt P04133 2-952)
T2 chain: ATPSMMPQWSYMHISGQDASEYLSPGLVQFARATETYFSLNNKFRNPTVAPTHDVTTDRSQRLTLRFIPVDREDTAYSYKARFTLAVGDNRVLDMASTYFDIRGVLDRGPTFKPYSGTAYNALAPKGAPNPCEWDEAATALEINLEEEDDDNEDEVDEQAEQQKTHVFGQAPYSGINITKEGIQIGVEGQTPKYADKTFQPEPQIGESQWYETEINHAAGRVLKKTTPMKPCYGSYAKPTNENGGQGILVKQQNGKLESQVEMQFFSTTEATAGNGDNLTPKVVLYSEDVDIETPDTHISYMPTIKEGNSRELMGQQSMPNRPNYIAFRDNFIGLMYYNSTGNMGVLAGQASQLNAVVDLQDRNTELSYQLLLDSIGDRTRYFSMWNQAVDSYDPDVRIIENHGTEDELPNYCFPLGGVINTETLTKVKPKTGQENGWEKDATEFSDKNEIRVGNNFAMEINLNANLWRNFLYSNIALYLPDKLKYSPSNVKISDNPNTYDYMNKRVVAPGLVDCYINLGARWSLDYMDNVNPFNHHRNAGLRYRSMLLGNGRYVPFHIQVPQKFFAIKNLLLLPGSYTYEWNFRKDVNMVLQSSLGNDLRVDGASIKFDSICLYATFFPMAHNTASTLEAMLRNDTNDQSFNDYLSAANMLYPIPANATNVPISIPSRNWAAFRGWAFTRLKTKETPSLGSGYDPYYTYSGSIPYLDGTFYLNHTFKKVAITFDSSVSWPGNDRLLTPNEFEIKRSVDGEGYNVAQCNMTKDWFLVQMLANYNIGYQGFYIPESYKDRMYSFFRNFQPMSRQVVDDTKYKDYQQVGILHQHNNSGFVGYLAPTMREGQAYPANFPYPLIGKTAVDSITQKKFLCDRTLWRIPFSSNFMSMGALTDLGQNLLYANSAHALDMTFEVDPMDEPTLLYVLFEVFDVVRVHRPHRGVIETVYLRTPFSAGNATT

T3: Ad2 hexon, on wild-type human adenovirus type 2 virions (human adenovirus type 2, UniProt P03277 1-968)
T3 chain: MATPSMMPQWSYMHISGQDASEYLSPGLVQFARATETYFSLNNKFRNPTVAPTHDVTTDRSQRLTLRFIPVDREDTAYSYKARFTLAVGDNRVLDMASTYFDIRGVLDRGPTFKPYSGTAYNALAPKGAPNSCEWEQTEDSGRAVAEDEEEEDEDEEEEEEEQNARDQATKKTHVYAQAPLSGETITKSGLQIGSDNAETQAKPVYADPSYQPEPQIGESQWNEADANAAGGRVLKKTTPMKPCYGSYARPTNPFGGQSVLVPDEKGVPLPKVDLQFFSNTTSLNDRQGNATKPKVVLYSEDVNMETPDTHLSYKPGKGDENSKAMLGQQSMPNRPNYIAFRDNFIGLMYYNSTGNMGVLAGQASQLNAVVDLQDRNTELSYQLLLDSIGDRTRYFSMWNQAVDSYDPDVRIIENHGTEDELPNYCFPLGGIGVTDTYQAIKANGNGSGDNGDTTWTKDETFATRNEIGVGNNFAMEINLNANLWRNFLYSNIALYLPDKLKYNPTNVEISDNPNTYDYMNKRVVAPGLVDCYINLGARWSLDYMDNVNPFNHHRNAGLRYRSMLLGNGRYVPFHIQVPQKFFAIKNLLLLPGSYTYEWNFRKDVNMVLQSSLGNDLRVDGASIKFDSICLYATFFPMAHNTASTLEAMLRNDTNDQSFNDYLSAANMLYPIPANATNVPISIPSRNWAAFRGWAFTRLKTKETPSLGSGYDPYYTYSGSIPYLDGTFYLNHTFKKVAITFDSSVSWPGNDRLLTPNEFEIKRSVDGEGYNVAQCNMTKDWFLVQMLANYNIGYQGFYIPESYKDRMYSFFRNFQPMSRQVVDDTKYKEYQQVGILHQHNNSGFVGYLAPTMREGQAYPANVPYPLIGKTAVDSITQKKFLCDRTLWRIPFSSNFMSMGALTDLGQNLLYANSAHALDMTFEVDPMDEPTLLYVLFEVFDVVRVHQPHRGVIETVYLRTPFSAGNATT

B1: Ad6 hexon, on wild-type human adenovirus type 6 virions (natural protein)
chain: ATPSMMPQWSYMHISGQDASEYLSPGLVQFARATETYFSLNNKFRNPTVAPTHDVTTDRSQRLTLRFIPVDREDTAYSYKARFTLAVGDNRVLDMASTYFDIRGVLDRGPTFKPYSGTAYNALAPKGAPNSCEWEQNETAQVDAQELDEEENEANEAQAREQEQAKKTHVYAQAPLSGIKITKEGLQIGTADATVAGAGKEIFADKTFQPEPQVGESQWNEADATAAGGRVLKKTTPMKPCYGSYARPTNSNGGQGVMVEQNGKLESQVEMQFFSTSTNATNEVNNIQPTVVLYSEDVNMETPDTHLSYKPKMGDKNAKVMLGQQAMPNRPNYIAFRDNFIGLMYYNSTGNMGVLAGQASQLNAVVDLQDRNTELSYQLLLDSIGDRTRYFSMWNQAVDSYDPDVRIIENHGTEDELPNYCFPLGGIGITDTFQAVKTTAANGDQGNTTWQKDSTFAERNEIGVGNNFAMEINLNANLWRNFLYSNIALYLPDKLKYNPTNVEISDNPNTYDYMNKRVVAPGLVDCYINLGARWSLDYMDNVNPFNHHRNAGLRYRSMLLGNGRYVPFHIQVPQKFFAIKNLLLLPGSYTYEWNFRKDVNMVLQSSLGNDLRVDGASIKFDSICLYATFFPMAHNTASTLEAMLRNDTNDQSFNDYLSAANMLYPIPANATNVPISIPSRNWAAFRGWAFTRLKTKETPSLGSGYDPYYTYSGSIPYLDGTFYLNHTFKKVAITFDSSVSWPGNDRLLTPNEFEIKRSVDGEGYNVAQCNMTKDWFLVQMLANYNIGYQGFYIPESYKDRMYSFFRNFQPMSRQVVDDTKYKDYQQVGIIHQHNNSGFVGYLAPTMREGQAYPANVPYPLIGKTAVDSITQKKFLCDRTLWRIPFSSNFMSMGALTDLGQNLLYANSAHALDMTFEVDPMDEPTLLYVLFEVFDVVRVHQPHRGVIETVYLRTPFSAGNATT

Legend:
Assay in all cases: SPR
[1] = biological target: T1, Ad1 hexon, on wild-type human …
[2] = biological target: T2, Ad5 hexon, on wild-type human …
[3] = biological target: B1
human prothrombin (FII) = human prothrombin (FII) (human, UniProt P00734 44-622, gamma-carboxylated glutamate residues in the Gla domain)
[4] = biological target: T3, Ad2 hexon, on wild-type human …

| Binder | Kd [1] [nM] | Kd [2] [nM] | Kd [3] [nM] | Kd (human prothrombin (FII)) [nM] | Kd [4] [nM] |
| --- | --- | --- | --- | --- | --- |
| mouse prothrombin (FII) (natural protein, gamma-carboxylated glutamate residues in the Gla domain) not shown | 14 | – | – | – | – |
| human coagulation factor X (natural protein, gamma-carboxylated glutamate residues in the Gla domain) chain 1: ANSFLEEMKKGHLERECMEETCSYEEAREVFEDSDKTNEFWNKYKDGDQCETSPCQNQGKCKDGLGEYTCTCLEGFEGKNCELFTRKLCSLDNGDCDQFCHEEQNSVVCSCARGYTLADNGKACIPTGPYPCGKQTLER chain 2: SVAQATSSSGEAPDSITWKPYDAADLDPTENPFDLLDFNQTQPERGDNNLTRIVGGQECKDGECPWQALLINEENEGFCGGTILSEFYILTAAHCLYQAKRFKVRVGDRNTEQEEGGEAVHEVEVVIKHNRFTKETYDFDIAVLRLKTPITFRMNVAPACLPERDWAESTLMTQKTGIVSGFGRTHEKGRQSTRLKMLEVPYVDRNSCKLSSSFIITQNMFCAGYDTKQEDACQGDSGGPHVTRFKDTYFVTGIVSWGEGCARKGKYGIYTKVTAFLKWIDRSMKTRGLPKAKSHAPEVITSSPLK | 220 | 0.74 | 28 | – | – |
| bovine prothrombin (FII) (natural protein, gamma-carboxylated glutamate residues in the Gla domain) not shown | 37 | – | – | – | – |
| B1 | – | – | – | 2.7 | – |
| bovine coagulation factor X (natural protein, gamma-carboxylated glutamate residues in the Gla domain) chain 1: ANSFLEEVKQGNLERECLEEACSLEEAREVFEDAEQTDEFWSKYKDGDQCEGHPCLNQGHCKDGIGDYTCTCAEGFEGKNCEFSTREICSLDNGGCDQFCREERSEVRCSCAHGYVLGDDSKSCVSTERFPCGKFTQGRS chain 2: WAIHTSEDALDASELEHYDPADLSPTESSLDLLGLNRTEPSAGEDGSQVVRIVGGRDCAEGECPWQALLVNEENEGFCGGTILNEFYVLTAAHCLHQAKRFTVRVGDRNTEQEEGNEMAHEVEMTVKHSRFVKETYDFDIAVLRLKTPIRFRRNVAPACLPEKDWAEATLMTQKTGIVSGFGRTHEKGRLSSTLKMLEVPYVDRSTCKLSSSFTITPNMFCAGYDTQPEDACQGDSGGPHVTRFKDTYFVTGIVSWGEGCARKGKFGVYTKVSNFLKWIDKIMKARAGAAGSRGHSEAPATWTVPPPLPL | 160 | – | 100 | – | 73 |
